Article PMC6212794, “Crystal structure of the modification-dependent SRA-HNH endonuclease TagI”
One block for each molecule: values may come before it.

Columns and labels:
[1] = target: TagI, SRA-HNH modification-dependent restriction endonuclease from Thermocrispum agreste (Thermocrispum agreste); assay: SEC; analytical gel filtration of TagI alone; apparent molecular mass compared with the theoretical mass of the dimer
[2] = target: TagI, SRA-HNH modification-dependent restriction endonuclease from Thermocrispum agreste (Thermocrispum agreste); assay: SEC-MALS; multi-angle light scattering of TagI alone
TagI [3] = target: T1, TagI (Thermocrispum agreste, UniProt A0A3F2YM30 1-311); assay: analytical gel filtration (SEC co-migration); 1, 2 or 4 duplexes per TagI dimer; sharp complex peak, 93 kDa, about 1 duplex per dimer; analytical gel filtration; buffer, salt, pH and temperature not given in the material; settings: protein: recombinant; chain copies: 2; blunt
T1 sequence: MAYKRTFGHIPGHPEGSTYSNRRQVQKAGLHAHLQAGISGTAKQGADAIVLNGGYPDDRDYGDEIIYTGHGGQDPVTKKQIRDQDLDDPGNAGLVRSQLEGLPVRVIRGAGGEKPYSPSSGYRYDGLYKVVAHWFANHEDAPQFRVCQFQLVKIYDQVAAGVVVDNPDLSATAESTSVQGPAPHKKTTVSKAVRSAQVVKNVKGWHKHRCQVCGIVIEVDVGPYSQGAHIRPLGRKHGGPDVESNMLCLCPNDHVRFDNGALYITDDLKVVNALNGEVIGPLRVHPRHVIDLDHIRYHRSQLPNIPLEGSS

TagI [4] = target: T1, TagI; assay: analytical gel filtration (SEC co-migration); 1, 2 or 4 duplexes per TagI dimer; migrated independently; analytical gel filtration; buffer, salt, pH and temperature not given in the material; settings: protein: recombinant; chain copies: 2; blunt

stoichiometry N [1]: 2 | stoichiometry N [2]: 2
Molecule: TagI, SRA-HNH modification-dependent restriction endonuclease from Thermocrispum agreste (enzyme)

B1: 17mer fully methylated duplex (dsDNA)
DNA 1: CCTAGAGCAGCAATCCC
DNA 2: GGGATTGCTGCTCTAGG
modifications: 5mC at position 8 of strand 1 and position 8 of strand 2
binding result (TagI [3]): binds

B2: 17mer unmodified duplex (dsDNA)
DNA 1: CCTAGAGCAGCAATCCC
DNA 2: GGGATTGCTGCTCTAGG
binding result (TagI [4]): no binding
